Residue numbers refer to the chain shown, from its start. Numbers in names are those of the source.
B1: H29L104 (Fab, V domains shown)
VH: EVQLVESGGGLVKPGGSLRLSCAASGFTFSSYSMNWVRQAPGKGLEWVSSISSSSSYIYYADSVKGRFTISRDNAKNSLYLQMNSLRAEDTAVYYCARDHPNYYDSSGLFDYWGQGTLVTVSS
VL: SSELTQDPAVSVALGQTVRITCQGDSLRSYYASWYQQKPGQAPVLVIYGKNYRPSGIPDRFSGSSSGNTASLTITGAQAEDEADYYCNSRDSSGNHWVFGGGTKLTVL
notes: Soluble Fab
B2: H38L72 (Fab, V domains shown)
VH: QVQLVESGGGVVQPGRSLRLSCAASGFTFSNYAMHWVRQAPGKGLEWVAVISYDGSNKYYADSVKGRFTISRDNSKNTLYLQMNSLRPEDTAVYYCARGGVGAFDYWGQGTLVTVSS
VL: EIVLTQSPATLSVSPGERATLSCRASQSVSSYLAWYQQKPGQAPRLLIYDASNRATGIPARFSGSGSGTDFTLTISSLEPEDFAVYYCQQRSNWPLTFGQGTKVEIK
notes: Soluble Fab
B3: H38L76 (Fab, V domains shown)
VH: B2 VH
VL: not shown
notes: Soluble Fab
B4: H37L92 (Fab, V domains shown)
VH: B2 VH with G102A
VL: QSALTQPASVSGSPGQSITISCTGTSSDVGGYKYVSWYQQHPGKAPKLIIYDVTNRPSGVSKRFSGSKSGNTASLTISGLQAEDEADYYCSSYTSRSTPVFGGGTKVTVL
notes: Soluble Fab
B5: H38L74 (Fab, V domains shown)
VH: B2 VH
VL: EIVLTQSPATLSLSPGERATLSCRASQSVSSYLAWYQQKPGQAPRLLIYDASNRATGIPARFSGSGSGTDFTLTISSLEPEDFAVYYCQQRSNWPTFGGGTKVEIK
notes: Soluble Fab
B6: H36L76 (Fab, V domains shown)
VH: B2 VH with N31S, G102A
VL: not shown
notes: Soluble Fab, clone B
B7: H38L75 (Fab, V domains shown)
VH: B2 VH
VL: B2 VL with V13L, S30R, Y32F, A51T, N53K, A55P, A60D, N93S, Q100G, K103T
notes: Soluble Fab
B8: H10L122 (Fab, V domains shown)
VH: QVQLVQSGAEVKKPGASVKVSCKASGYSFSNYYMHWVRQAPGEGLEWMGIINPKGGTTSYAQKFQGRVTIAADKFTNSAYMEPSSLRYEDTAVYFCARAKFSWSPDIWGQGTVVTVSS
VL: QAVVTQEPSLTVSPGGTVTLTCDSSTGAVTSGHYPYWLQQKPGQAPRTLIYDTHNKHSWTPGRFSGSLLGGKAALTLSGAQPEDEAEYYCSLSYSAVWVFGGGTKLTVL
notes: Soluble Fab
B9: P4-7 (peptide)
peptide: FPLNTIIHSAVY
notes: From the 12-mer linear phage library; also called 12-mer linear peptide
B10: P4-2a (peptide)
peptide: CIVPWFFHC
notes: From the Cys-7-mer-Cys constrained phage library; also called C7C constrained peptide
B11: H45L61 (Fab, V domains shown)
VH: QVQLVESGGGVVQPGRSLRLSCAASGFTFSNFNMHWVRQAPGKGLEWVALISYDGSSKYYTDSVKGRFTISRDNSKNTLYLQMNSLRPEDTAVYYCMVVGAFDYWGQGTLVTVSS
VL: EIVLTQSPGTLSLSPGERATLSCRASQSVGSSYLAWYQQKPGQAPRLLIYGVSSRATGIPDRFSGSGSGTDFTLTISRLEPEDFAVYYCQQYGGSPLTFGGGTTVEIK
notes: Soluble Fab, clone A
B12: H47L64 (Fab, V domains shown)
VH: B11 VH with A24T, S57N, Y59N, T61A, D62N, Y80F, P88V
VL: EIVLTQSPDTLSLSPGDRATLSCRASQSVSNYLAWYQQKAGRAPSLLIYGTSRRATDIPDRFSGSGSGTDFTLTISRLEPEDSAVYYCQQYGSASLTFGGGTKVEIK
notes: Soluble Fab, clone A; also called putative GPIb/IX-specific Fab
B13: H47L63 (Fab, V domains shown)
VH: B11 VH with A24T, S57N, Y59N, T61A, D62N, Y80F, P88V
VL: EIVLTQSPGTLSLSPGERATLSCRASQSVGNNYLAWYQQRPGRAPRLVMYDPSSRATGIPDRFSGSGSGTDFTLTISRLEPEDFAVYYCQQYGNSPPTFGGGTKVEIK
notes: Soluble Fab, clone A
B14: P3-4 (peptide)
peptide: CPSLAHRWC
notes: as for B10
B15: P4-12 (peptide)
peptide: DLRLNSLIVPWS
notes: as for B9

Experiments:
[1] = molecular target: T1, GPIIb/IIIa on intact human platelets (human, UniProt P08514 32-1039; P05106 27-788); test: immunoprecipitation from biotinylated platelets; agrees with ELISA and Glanzmann platelet flow cytometry;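 also: precipitated biotin-labelled platelet membrane proteins visualized with biotinylated horseradish peroxidase-avidin complexes, scored for polypeptides behaving like GPIIb/IIIa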
T1 construct: whole, on cells; also called platelet GPIIb/IIIa; αIIbβ3
Excerpt: Precipitated, biotinylated platelet membrane proteins were detected with biotinylated horseradish peroxidase-avidin complexes (ABC Staining Kit, Pierce).

[2] = molecular target: T2, GPIa/IIa on a stable K562 cell line (UniProt P17301 30-1181; P05556 21-798, limits assumed); test: flow cytometry on K562 cells expressing GPIa/IIa
T2 construct: whole, on cells; also called K562 cell line expressing GPIa/IIa

H44L4 full-length IgG = molecular target: T3, H44L4 full-length IgG; test: peptide ELISA (scheme of FIG. 8)
T3 construct: also called autoanti-GPIIb/IIIa

Binder | binding result [1] | binding result [2] | binding result (H44L4 full-length IgG)
B1 | no binding | no binding | 
IDVWWLSTQGVP [P124-1] |  |  | binds
CTWLPYPYC [P74-9] |  |  | binds
LPFNTLIVPGRT [P124-11] |  |  | binds
CTHWWRPAC [P73-10] |  |  | binds
B2 | no binding | no binding | 
B3 | no binding | no binding | 
B4 | no binding | no binding | 
B5 | no binding | no binding | 
B6 | no binding | no binding | 
B7 | no binding | no binding | 
CIIPFMFQC [P73-9] |  |  | binds
B8 | no binding | no binding | 
CVVQWMFQC [P74-1a] |  |  | binds
CVVSWMFQC [P74-8] |  |  | binds
FPLMSLINPWRT [P124-2] |  |  | binds
B9 |  |  | binds

Binder | binding result [1] | binding result [2] | binding result (H44L4 full-length IgG)
FLPISTLITPSG [P123-8] |  |  | binds
B10 |  |  | binds
CVVPWFFHC [P74-4] |  |  | binds
B11 | no binding | no binding | 
B12 | no binding | no binding | 
B13 | no binding | no binding | 
CETWWRLSC [P73-6] |  |  | binds
CQHKLPSNC [P73-7] |  |  | binds
CIVEHFFHC [P73-2] |  |  | binds
CLIPWMFNC [P74-3] |  |  | binds
B14 |  |  | binds
KHSMPINAILPP [P124-8] |  |  | binds
LPFDTIIKPWPV [P123-11] |  |  | binds
WSLHTLGLPFVF [P123-10] |  |  | binds
B15 |  |  | binds
CVTSKPHTC [P74-5] |  |  | binds
CLVPWMFHC [P73-11] |  |  | binds
